Data: publication PMC6391492, “Native mass spectrometry identifies an alternative DNA-binding pathway for BirA from Staphylococcus aureus”

Experiments:
[1] = molecular target: S. aureus BirA (biotin retention protein A, biotin protein ligase), strain Mu50, wild type (S. aureus strain Mu50); test: native MS; holo proteins, 10 µM, with 5 µM SabioO oligonucleotide with only one BirA half site, 200 mM ammonium acetate pH 6.9, 4 °C at least 1 hour
[2] = molecular target: S. aureus BirA (biotin retention protein A, biotin protein ligase), strain Mu50, wild type (S. aureus strain Mu50); test: native MS; holo proteins (pre-incubated with 500 µM biotin, 1 mM ATP, 1 mM MgCl2 on ice, then buffer exchanged), no DNA, 10 µM protein in 200 mM ammonium acetate pH 6.85; dimer to monomers
SaBirA-F123G [3] = molecular target: T1, SaBirA-F123G (Staphylococcus aureus Mu50, UniProt A0A0H3JRH8 1-323, F123G); test: native nESI-MS; apo; nESI-MS: 200 mM ammonium acetate pH 6.9, 10 uM protein, 5 uM DNA, 4 C >=1 h; EMSA: 50 mM Tris pH 8.0, 50 mM NaCl, 0.1 mM biotin, 1 mM ATP, 1 mM MgCl2, 10% glycerol, 10 nM DNA, room temperature 30 min; settings: protein: recombinant; label: none; blunt
SaBirA [4] = molecular target: T2, SaBirA (Staphylococcus aureus Mu50, UniProt A0A0H3JRH8 1-323); test: as above; settings: protein: recombinant; label: none; blunt
SaBirA-F123G [5] = molecular target: T1, SaBirA-F123G; test: EMSA; holo; biotin, ATP, Mg2+; nESI-MS: 200 mM ammonium acetate pH 6.9, 10 uM protein, 5 uM DNA, 4 C >=1 h; EMSA: 50 mM Tris pH 8.0, 50 mM NaCl, 0.1 mM biotin, 1 mM ATP, 1 mM MgCl2, 10% glycerol, 10 nM DNA, room temperature 30 min; settings: protein: recombinant, label: none
SaBirA [6] = molecular target: T2, SaBirA; test: native nESI-MS; apo; two subunits on DNA; nESI-MS: 200 mM ammonium acetate pH 6.9, 10 uM protein, 5 uM DNA, 4 C >=1 h; EMSA: 50 mM Tris pH 8.0, 50 mM NaCl, 0.1 mM biotin, 1 mM ATP, 1 mM MgCl2, 10% glycerol, 10 nM DNA, room temperature 30 min; settings: protein: recombinant; label: none; blunt
SaBirA [7] = molecular target: T2, SaBirA; test: EMSA; holo; biotin, ATP, Mg2+; up to 2 uM; nESI-MS: 200 mM ammonium acetate pH 6.9, 10 uM protein, 5 uM DNA, 4 C >=1 h; EMSA: 50 mM Tris pH 8.0, 50 mM NaCl, 0.1 mM biotin, 1 mM ATP, 1 mM MgCl2, 10% glycerol, 10 nM DNA, room temperature 30 min; settings: protein: recombinant; label: none; blunt
SaBirA-F123G [8] = molecular target: T1, SaBirA-F123G; test: native nESI-MS; apo; one subunit on DNA; nESI-MS: 200 mM ammonium acetate pH 6.9, 10 uM protein, 5 uM DNA, 4 C >=1 h; EMSA: 50 mM Tris pH 8.0, 50 mM NaCl, 0.1 mM biotin, 1 mM ATP, 1 mM MgCl2, 10% glycerol, 10 nM DNA, room temperature 30 min; settings: protein: recombinant; label: none; blunt
SaBirA [9] = molecular target: T2, SaBirA; test: native nESI-MS; apo; one monomer on DNA, no dimer; nESI-MS: 200 mM ammonium acetate pH 6.9, 10 uM protein, 5 uM DNA, 4 C >=1 h; EMSA: 50 mM Tris pH 8.0, 50 mM NaCl, 0.1 mM biotin, 1 mM ATP, 1 mM MgCl2, 10% glycerol, 10 nM DNA, room temperature 30 min; settings: protein: recombinant; label: none; blunt
EcBirA = EcBirA (Escherichia coli, UniProt P06709 1-321); test: native nESI-MS; holo (biotinyl-5'-AMP); two subunits on DNA; nESI-MS: 200 mM ammonium acetate pH 6.9, 10 uM protein, 5 uM DNA, 4 C >=1 h; EMSA: 50 mM Tris pH 8.0, 50 mM NaCl, 0.1 mM biotin, 1 mM ATP, 1 mM MgCl2, 10% glycerol, 10 nM DNA, room temperature 30 min; settings: protein: recombinant; chain copies: 2; label: none
EcBirA-R119W = EcBirA-R119W (Escherichia coli, UniProt P06709 1-321, R119W); test: native nESI-MS; holo (biotinyl-5'-AMP); two subunits on DNA; 10 uM protein; nESI-MS: 200 mM ammonium acetate pH 6.9, 10 uM protein, 5 uM DNA, 4 C >=1 h; EMSA: 50 mM Tris pH 8.0, 50 mM NaCl, 0.1 mM biotin, 1 mM ATP, 1 mM MgCl2, 10% glycerol, 10 nM DNA, room temperature 30 min; settings: protein: recombinant; label: none

Which results are given for “S. aureus BirA (biotin retention protein A, biotin protein ligase), strain Mu50, wild type (enzyme)”?
stoichiometry N [1]: 2; stoichiometry N [2]: 2

B1: HSm SabioO (both half-sites mutated) (dsDNA)
DNA 1: TTACACAGACGATTATTAATTATAAAAAGCAGACACCG
DNA 2: CGGTGTCTGCTTTTTATAATTAATAATCGTCTGTGTAA
Does B1 bind (SaBirA-F123G [3])?
Result: no binding

Does B1 bind (SaBirA [4])?
Result: no binding

B2: SabioY (full strands) (dsDNA)
DNA 1: AACTTATTGTAAACTTTTCATTTCTTAAAGTTTACAATGGTGCT
DNA 2: AGCACCATTGTAAACTTTAAGAAATGAAAAGTTTACAATAAGTT
Does B2 bind (SaBirA-F123G [5]; blunt)?
Result: binds

Does B2 bind (SaBirA [6])?
Result: binds

B3: HS2m SabioO (second half-site mutated) (dsDNA)
DNA 1: TTAAATGTAAACTTATTAATTATAAAAAGCAGACACCG
DNA 2: CGGTGTCTGCTTTTTATAATTAATAAGTTTACATTTAA
Does B3 bind (SaBirA [7])?
Result: no binding

B4: HS1m SabioO (first half-site mutated) (dsDNA)
DNA 1: TTACACAGACGATTATTAATTATAAAAGTTTACATTCG
DNA 2: CGAATGTAAACTTTTATAATTAATAATCGTCTGTGTAA
Does B4 bind (SaBirA-F123G [8])?
Result: binds

Does B4 bind (SaBirA [9])?
Result: binds

B5: SabioO (dsDNA)
DNA 1: CCTTAAATGTAAACTTTTATAATTAATAAGTTTACATTTAAG
DNA 2: CCTTAAATGTAAACTTATTAATTATAAAAGTTTACATTTAAGG
Does B5 bind (SaBirA-F123G [5])?
Result: binds

B6: EcbioO (dsDNA)
DNA 1: TAATCGACTTGTAAACCAAATTGAAAAGATTTAGGTTTACAAGTCTACAC
DNA 2: GTGTAGACTTGTAAACCTAAATCTTTTCAATTTGGTTTACAAGTCGATTA
Does B6 bind (EcBirA)?
Result: binds

Does B6 bind (EcBirA-R119W)?
Result: binds
